# Assay: yeast display, Sf9 membrane polyspecificity reagent, FACS + sequencing; frameworks hold sequencing errors
# Summary of the method: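 Synthetic nanobody libraries on Saccharomyces cerevisiae BJ5465 were galactose-induced for 36–48 hours, stained 1 hour at 4 °C with 10% biotinylated, detergent-solubilized Sf9 membrane reagent and enriched on streptavidin microbeads. FACS then separated cells into low and high (top ~1%) gates by anti-HA (expression) and streptavidin (reagent binding) fluorescence. Genes were colony-PCR amplified, MiSeq 2 × 250 sequenced and CDR-length filtered. A clone's polyreactivity label is that of its gate of origin.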
row,Sequence,polyreactivity (PSR sort gate)
1,QVQLVESVGGLVQAGGSLRLSCAASGFTFVSNAMGWDRQEPGKERELVAAISTGGRTYYADSVKGRFTISRDNAKNTVYLQMNSLKTEDTAFYYCNARYGLRYVRYGEMDYWGQGTQVTVSS,high polyreactivity
2,QVQLVESVGGLVQAGGSLRLSCAASGFTFYGYAMGWYRQAPGKERELVAAITSGGITNYADSVKGRFTISRDNAKNTVYLQMNSLKPEDTAVYYCNVKRRVSGYYGYKYYYWGQGTQVTVSS,high polyreactivity
3,QVQLVESVGGLVQAGGSLRLSCAASGFTFYRYAMGWYRQAPGKERELVAAISWSGGSTYYADSVKGRFTISRDNAKNTVYLQMNSLKPEDTAVYYCAARGGYYDYYYWGQGTQVTVSS,high polyreactivity
4,QVQLVESVGGLVQAGGSLRLSCAASGGIFWVYAMGWYRQAPGKERELVAAISNSDTSTSYADSVKGRFTISRDNAKNTVYLQMNSLKPEDTAVYYCNADSPSLSGDYWGQGTQVTVSS,low polyreactivity
5,QVQLVESVGGLVQAGGSLRLSCAASGITFAWYALGWYRQAPGKERELVAAITWSGDSTYYADSVKGRFTISRDNAKNTVYLQMNSLKPEDTAVYYCAAAYFSSGYKYYYWGQGTQVTVSS,high polyreactivity
6,QVQLVESVGGLVQAGGSLRLSCAASGITFDKYAMGWYRQATVKERELVAAISGSDGSTYYADSVKGRFTISRDNAKNNVYLQMNSLKPEDTAVYYCAAESEYAGTYEYDYWGQGTQVTVSS,low polyreactivity
7,QVQLVESVGGLVQAGGSLRLSCAASGLILANYAMGWYRQAPGKERELVAAISSSGGSTYYADSVKGRFTISRDNAKNTVYLQMNSLKPEDTAVYYCAKAYRGGSAGKSYYYWGQGTQVTVSS,high polyreactivity
8,QVQLVESVGGLVQAGGSLRLSCAASGLMFWYYTMGWYRQAPGKERELVAAIRSGGSTNYADSVKGRFTISRDNAKNTVYLQMNSLKPEDTAVYYCAARKWHSAYDYWGQGTQVTVSS,high polyreactivity
9,QVQLVESVGGLVQAGGSLRLSCAASGLTFNHYAMGWYRQAPGKEMELVAAISKSGSSTYYADSVKGRFTISRDNAKNTVYLQMNSLKPEDTAVYYCAARSWDPALYDYWGQGTQVTVSS,high polyreactivity
10,QVQLVESVGGLVQAGGSLRLSCAASGNTFHTNAMGWYRQAPGKERELVAAITGGGSTYYADSVKGRFTISRDNAKNTVYLQMNSLKPEDTAVYYFNTDVPYGLDVSDTIDYYYWGQGTQVTVSS,low polyreactivity
11,QVQLVESVGGLVQAGGSLRLSCAASGNTFYVNVMGWYRQAPGKEREFVAAITWIGGSTYYADSVKGRFTISRDNAKNTVYLQMNSLKPEDTAVYYCAADVYNRWWWRAYDYWGQGTQVTVSS,high polyreactivity
12,QVQLVESVGGLVQAGGSLRLSCAASGRIFPVYAMGLYRQAPGKERELVAAISKRDGSTSYADSVKGRFTISRDNAKNTVYIQMNSLKPEDTAVYYCNARNHVQVLFRRDYWGQGTQVTVSS,low polyreactivity
13,QVQLVESVGGLVQAGGSLRLSCAASGRIFWGYDMGWYRQAPGKEREFVAAISSGGGRTYYADSVKGRFTISRDNAKNTVYLQMNSLKPEDTAVYYCNADSGSYWVPRGYEYWGQGTRVTVSS,low polyreactivity
14,QVQLVESVGGLVQAGGSLRLSCAASGRIFYVYVMGWYRPAPGKERELVAAISKRGDNTYYSDSVKGRFTISRDNAKNTVYLQMNSLKPEDTAVYYCNVKRYCGRSDYWGQGTQVTVSS,high polyreactivity
15,QVQLVESVGGLVQAGGSLRLSCAASGRILKRNAMGWYRQAPGKERELVAAISWSTGTTYYADSVKGRFTISRDNAKNTVYLQMKSLKPEDTAVYYSAKQIVSGRRVDRNDYWGQGTQVSVSS,low polyreactivity
16,QVQLVESVGGLVQAGGSLRLSCAASGRTFDYYALGWYRQAPGKERELVAAISSSGGRTYYADSVKGRFTISRDNAKNTVYLQMNSLKPEDTAVYYCNAVVSRNYEYWGQGTQVTVSS,high polyreactivity
17,QVQLVESVGGLVQAGGSLRLSCAASGRTFFKYAMGLYRQAPGKERELVAAITGRGGSTYADSVKGRFTISRDNAKNTVYLQMNSLKPEDTAVYYCAKVYQRGAQYYYYKYDYWGQGTQVTVSS,high polyreactivity
18,QVQLVESVGGLVQAGGSLRLSCAASGRTFGRYAMGWYRKAPGKERELVAAINRGGSTKYADSVKGRFTISRDNAKNTVYFQMNSLKPEDTAVDYCAKDRHPALHYDYWGQGTQVTVSS,low polyreactivity
19,QVQLVESVGGLVQAGGSLRLSCAASGRTFLRYAMGWYRQAPGKERELVAAISWSGGRTYYADSVKGRFTISRDNAKNTVYLQMNSLKPEDTAVYYCNKVVLYGAHYYYWGQGTQVTVSS,high polyreactivity
20,QVQLVESVGGLVQAGGSLRLSCAASGRTFSEYAMGWYRQAPGEERELVAAITSTGGITYYADSVKGRFTISRDNAKNTVYLQMNSLKPEDTAVYYCAARAYTWGPAGQVDKYYYWGQGTQVTVSS,high polyreactivity
21,QVQLVESVGGLVQAGGSLRLSCAASGRTFSRFAMGWYRKAPGKERELVAAISYSGGRTYYADSVKGRFTISRDNAKNTVYLQMNSLKPEDTAVYYCAASWPGDTVDYDYWGQGTQVTVSS,high polyreactivity
22,QVQLVESVGGLVQAGGSLRLSCAASGRTFYHYAIGWYIQAPGQERELVAAITYRGGNTYYADSVKGRFTISRDNAKNTVYLQMNRLKPEDTAVYYCAKQGVRRHYGYDYWGQGTQVTVSS,high polyreactivity

row,Sequence,polyreactivity (PSR sort gate)
1,QVQLVESVGGLVQAGGSLRLSCAASGRTFYQYALGWYRQAPGKERELVAVINGGGSTNYADSVKGRFTISRDNAKNTVYLQMNSLKPEDTAVYYCNADGRRGRYDYWGQGTQVTVSS,low polyreactivity
2,QVQLVESVGGLVQAGGSLRLSCAASGRTFYYYTMGWYRQAPGKEWELVAAISSTGNTYYADSVKGRFTISRDNAKNTVYLHMISLQPEDTAVYYCAALGYVKLLAQAYEYWGHGTQVTVSS,high polyreactivity
3,QVQLVESVGGLVQAGGSLRLSCAASGRTLYPNAMGWYRQAPGKERELVASISWSGVSTYYADSVKGRFTISRDNAKNTVYLQMNSLKPEDTAVYYCNAVGYWSDGLVWYEGDYWGQGTQVTVSS,low polyreactivity
4,QVQLVESVGGLVQAGGSLRLSCAASGSIFAGYAMGWYRQAPGKERELVAAISRRGGRTYYADSVKGRFTISRDIAKNTVYLQMNSLKPEVTAVYYCNRDYRRSTGSPEYDYWGQGTQVTVSS,high polyreactivity
5,QVQLVESVGGLVQAGGSLRLSCAASGSIFASNSMGWYRQETGKEREFVAAITWRTDRTYYADSVKGRFTISRDNAKNTLYFQMNSLKPEDTAVYYFAADTWFYRFYYWGQGTQVTVSS,high polyreactivity
6,QVQLVESVGGLVQAGGSLRLSCAASGSIFEQNAMGWYRQAPGKERELVAGINEGGGSTYYADSVKGRFTISRDNAKNTVYLQMNSLKPEDTAVYYCAAEYYDDFSYGWYDYWGQGTQVTVSS,high polyreactivity
7,QVQLVESVGGLVQAGGSLRLSCAASGSIFFSYAMGWYRQAPGKERELVAGINWSGGSTYADSVKGRFTISRDNAKNTVYLQMNSLKPEDTAVYYCAAKYYSERSRYHYWGQGTQVTVSS,low polyreactivity
8,QVQLVESVGGLVQAGGSLRLSCAASGSIFGDNAMGWYRQAPGKERELVAAITWRGGSTYYADSVKGRFTISRDNAKNTVYLQMNSLKPEDTAVYYCATDSRSHRDYWGQGTQVTVSS,low polyreactivity
9,QVQLVESVGGLVQAGGSLRLSCAASGSIFIANAIGWYRQAPGKERELVAAISWSGGRTYYADSVKGRFTISRDNAKNTVYLQMNSLKPEDTAVYYCAAVYGAYDSGRFLSFGNFDYWGQGTQVTVSS,high polyreactivity
10,QVQLVESVGGLVQAGGSLRLSCAASGSIFLQNAMGGYRQAPGKERELVAAITNGGSTNYADSVKGRFTISRDNAKNTVYLQMNSLKPEDTAVYYCAAYPLYTGSYDRGGYWGQGTLVTVSS,low polyreactivity
11,QVQLVESVGGLVQAGGSLRLSCAASGSIFRRYTMGWYRQAPGKERELFAAISRVGNTNYAHSVKGRFTISRDNAKNTVYLQMNSLKPEATAVYYCAARAIGYRYTPGLNYWGQGTQVTVSS,high polyreactivity
12,QVQLVESVGGLVQAGGSLRLSCAASGSIFWSNAMGWYRQAPGKERELVARISTSGGRTYYADSVKGRFTISRDNAKNTVYLQMNSLKPEDTAVYYCNAGKLYYRWLYDYWGQGTQVTVSS,high polyreactivity
13,QVQLVESVGGLVQAGGSLRLSCAASGSIFYPNAMGLYRQAPGKERELVAAISSSGGTNYADSVKGRFTISRDNAKNTVYLQMNSLKPEDTAVYYCNARDKVRYRYSRMDYWGQGTQVTVSS,low polyreactivity
14,QVQLVESVGGLVQAGGSLRLSCAASGSIIFTNVMGWYRQAPGKDREFVAAITGGGGSTYYADSVKGRFTISRDNAKNTVYLQMNSLKPEDTAVYYCATKAKPRSGYNYWGQGTQVTVSS,low polyreactivity
15,QVQLVESVGGLVQAGGSLRLSCAASGSIIKVYAMGWYRQAPGKERELVAGIRGSGGRTYYADSVKGRFTISRDNAKNTVYLQMNSLKPEDTAVYYCNARNPGRLGRFDYWGQGTQVTVSS,low polyreactivity
16,QVQLVESVGGLVQAGGSLRLSCAASGSNFSKKTMGGSRQAHGKERELVAAITTRGSSTYYADSVKGRFTISRDNAKNTVYLQMNSLKPVDTAVYYCNAPYRVTGGRYRWYDYWGQGTQVTVSS,high polyreactivity
17,QVQLVESVGGLVQAGGSLRLSCAASGSSIPYYAMGWYRQAPGKERELVARITWRSTSTYADSVKGRFTISRDNAKNTVYLQMNSLKPEDTAVYYCAVRLLSTYIIEYEHWGQGTQVTLSS,low polyreactivity
18,QVQLVESVGGLVQAGGSLRLSCAASGSTFAYNDMGWYRQAPGKERELVPDIRSGGNTNYADSVKGRFTISRDNAKNTVYLQMNSLKPEDTAVYYCATDGYRIDVYHPDYRYDYWGQGTQVTVSS,low polyreactivity
19,QVQLVESVGGLVQAGGSLRLSCAASGSTFEDNAMGWYRQAPGKERELVAAITTGGGSTYYADSVKGRFTISRDNAKNTVYLQINSLKPEDTEVYYCNAEHGWFGLLFIATANEYDYLGQGTQVTVSS,low polyreactivity
20,QVQLVESVGGLVQAGGSLRLSCAASGSTFGINAMGWYRQAPGKERELVASITRRGGSTYYADSVKGRFTISRDNAKNTVYLQMNSLKPEDTAVYYCNKTYRYGTPLYDYWGQGTQVTVSS,high polyreactivity
21,QVQLVESVGGLVQAGGSLRLSCAASGSTFKYYAMGWYRPAPGKERELVAAITYSGGRTYYADSVKGRFTISRDNAKNTVYLQMNSLNPEDTAGYYCAARRGREDDYWGQGTQVTVSS,low polyreactivity

# Source: the nanobody polyreactivity screen of Harvey et al. (2022)
